This passage reports Kd results from PMC2615086 (The Journal of Cell Biology, 2009).

This assay has as its target T1, Fic1-His6 (S. pombe, UniProt O94701 1-272).
T1 sequence: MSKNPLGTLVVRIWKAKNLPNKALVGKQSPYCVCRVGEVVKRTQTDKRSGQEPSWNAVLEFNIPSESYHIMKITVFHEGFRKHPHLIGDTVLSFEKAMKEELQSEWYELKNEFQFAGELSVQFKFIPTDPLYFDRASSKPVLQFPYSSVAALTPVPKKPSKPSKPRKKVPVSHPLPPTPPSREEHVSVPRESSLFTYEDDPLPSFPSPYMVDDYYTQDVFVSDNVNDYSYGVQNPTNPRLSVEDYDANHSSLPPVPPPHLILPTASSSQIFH
The experiment in a line: quantitative in vitro binding.

B1: MBP-Cdc15SH3 (domain or fragment)
chain: SSMSLYGEYNKSQPQLSMQRSVSPNPLGPNRRSSSVLQSQKSTSSNTSNRNNGGYSGSRPSSEMGHRYGSMSGRSMRQVSQRSTSRARSPEPTNRNSVQSKNVDPRATFTAEGEPILGYVIALYDYQAQIPEEISFQKGDTLMVLRTQEDGWWDGEIINVPNSKRGLFPSNFVQTV
Consider B1, for which the Kd is roughly 3000 nM.
